Data taken from patent publication US20200165345A1 (GlaxoSmithKline, published 2020).

What was measured:
[1] = target: T1, human full-length TrkB receptor (human, UniProt Q16620 32-822); experiment: cell-based or functional assay
[2] = target: T1, human full-length TrkB receptor; experiment: cell-based or functional assay; remark: listed apart in the source
[3] = target: T1, human full-length TrkB receptor; experiment: cell-based or functional assay; remark: listed apart in the source
[4] = target: T2, rat TrkB receptor (rat, UniProt Q63604 32-821); experiment: method not detailed
T2 construct: whole, on cells; also called rodent TrkB
T2 sequence (Q63604 32-821): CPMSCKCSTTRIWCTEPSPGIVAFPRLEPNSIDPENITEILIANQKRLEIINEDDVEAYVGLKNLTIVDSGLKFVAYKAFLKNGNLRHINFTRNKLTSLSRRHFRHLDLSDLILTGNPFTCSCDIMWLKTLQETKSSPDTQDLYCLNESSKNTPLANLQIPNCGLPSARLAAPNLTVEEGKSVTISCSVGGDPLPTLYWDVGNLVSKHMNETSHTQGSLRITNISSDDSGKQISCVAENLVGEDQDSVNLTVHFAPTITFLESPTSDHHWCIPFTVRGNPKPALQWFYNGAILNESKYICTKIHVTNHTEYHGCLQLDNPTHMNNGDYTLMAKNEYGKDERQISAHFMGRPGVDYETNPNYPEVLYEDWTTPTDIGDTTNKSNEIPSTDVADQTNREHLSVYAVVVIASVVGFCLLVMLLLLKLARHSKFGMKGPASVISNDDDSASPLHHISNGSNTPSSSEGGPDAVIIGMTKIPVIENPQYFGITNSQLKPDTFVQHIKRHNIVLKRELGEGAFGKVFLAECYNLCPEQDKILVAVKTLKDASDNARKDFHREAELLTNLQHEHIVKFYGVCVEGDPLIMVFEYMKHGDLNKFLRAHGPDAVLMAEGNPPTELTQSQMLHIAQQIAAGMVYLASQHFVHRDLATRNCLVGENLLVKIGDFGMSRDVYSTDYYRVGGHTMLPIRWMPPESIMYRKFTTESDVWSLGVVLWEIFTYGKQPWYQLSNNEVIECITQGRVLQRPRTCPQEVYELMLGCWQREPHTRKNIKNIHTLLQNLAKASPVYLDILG

[5] = target: T3, mouse TrkB receptor (mouse, UniProt P15209 32-821); experiment: method not detailed
T3 construct: whole, on cells; also called murine TrkB; rodent TrkB
T3 sequence (P15209 32-821): as the sequence (Q63604 32-821) above, with M3T, T9S, T10A, I32V, K63R, G84S, T153M, I185L, T394S, N770S counted along it

T1 sequence (Q16620 32-822 limits assumed): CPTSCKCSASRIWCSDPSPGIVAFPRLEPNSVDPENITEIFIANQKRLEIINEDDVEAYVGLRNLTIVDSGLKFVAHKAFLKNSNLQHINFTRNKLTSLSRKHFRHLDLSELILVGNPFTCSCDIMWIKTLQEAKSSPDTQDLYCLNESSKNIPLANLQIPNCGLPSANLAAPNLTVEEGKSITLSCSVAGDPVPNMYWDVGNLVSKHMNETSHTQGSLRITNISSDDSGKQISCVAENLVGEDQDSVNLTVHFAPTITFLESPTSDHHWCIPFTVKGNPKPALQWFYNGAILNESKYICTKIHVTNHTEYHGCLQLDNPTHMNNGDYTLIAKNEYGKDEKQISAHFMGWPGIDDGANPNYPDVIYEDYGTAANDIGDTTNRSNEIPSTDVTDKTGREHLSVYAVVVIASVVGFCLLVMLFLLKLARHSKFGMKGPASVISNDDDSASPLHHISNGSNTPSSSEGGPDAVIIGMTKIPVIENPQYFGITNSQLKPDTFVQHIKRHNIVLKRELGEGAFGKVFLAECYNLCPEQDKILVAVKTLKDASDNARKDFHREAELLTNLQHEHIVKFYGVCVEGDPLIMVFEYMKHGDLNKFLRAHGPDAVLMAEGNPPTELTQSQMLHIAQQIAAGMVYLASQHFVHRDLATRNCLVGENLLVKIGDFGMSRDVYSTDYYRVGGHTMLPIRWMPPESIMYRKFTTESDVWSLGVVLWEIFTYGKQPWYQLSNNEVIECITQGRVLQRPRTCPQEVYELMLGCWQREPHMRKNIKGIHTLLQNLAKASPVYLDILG

| Binder | neurite outgrowth, PC12 cells expressing human TrkB, EC50 [1] [nM] | Potentiation of BDNF-induced agonism of TrkB (pTrkB, % of BDNF alone) [2] [%] | Activation of TrkB (pTrkB, Y515), EC50 [2] [nM] | EC50 (read off the curve); pTrkB relative activity in the presence of 10 nM BDNF [3] [nM] | binding result [4] | binding result [5] | levels of phosphorylated TrkB in CHO-K1 cells, EC50 [1] [nM] | cell survival, PC12 cells expressing human TrkB, EC50 [1] [nM] |
| --- | --- | --- | --- | --- | --- | --- | --- | --- |
| 1G11 (antibody, V domains shown) VH: QVQLQQSGDDLVKPGASVKLSCKASGYTFTSYYINWIKQRPGQGLECIGRIAPGNTYYNEIFKGKAILTVDTSSSTAYIQLSSLSSEDSGVYFCARRGYEGALDYWGQGTSVTVSS VL: DIVLTQSPATLSVTPGDSVSLSCRASQRISNNLHWYQQKSHESPRLLIKYVSQSISGIPSRFSGSGSGTDFTLSINSVETEDFGMYFCQQSNSWPLTFGAGTKLELKR |  | ~130 | 3.1 | ~10 |  |  |  |  |
| 3A3 (antibody, mouse IgG1, kappa, V domains shown) VH: QVQLQQSGAELAKPGASVKMSCKASGYTFSSYWMHWVKQRPGQGLEWIGYINPSTGYTDYNQKFKDKATLTADKSSNTAYMQLSSLTSDDSAVYYCARSRAARYWGQGTTLTVSS VL: not shown |  | ~160 |  | ~0.7 |  |  |  | 0.006 |

More lines, main results first:

| neurite outgrowth, PC12 cells expressing human TrkB, EC50 [1] [nM] | Potentiation of BDNF-induced agonism of TrkB (pTrkB, % of BDNF alone) [2] [%] | Activation of TrkB (pTrkB, Y515), EC50 [2] [nM] | EC50 (read off the curve); pTrkB relative activity in the presence of 10 nM BDNF [3] [nM] | binding result [4] | binding result [5] | levels of phosphorylated TrkB in CHO-K1 cells, EC50 [1] [nM] | Binder | cell survival, PC12 cells expressing human TrkB, EC50 [1] [nM] |
| --- | --- | --- | --- | --- | --- | --- | --- | --- |
| 1.58 | ~120 |  |  |  |  |  | 8E5 (antibody, mouse IgG1, kappa, V domains shown) VH: EVQLVESGGDLVKPGGSLKLSCAASGFTFSTYGMSWVRQTPDKGLEWVATVSTGGTYTYYPDSVKGRFTISRDNAKNTLYLQMSSLKSEDTAMYYCARGGYSFAYWGQGTLVTVSA VL: ENVLTQSPAIMSASPGEKVTMTCRASSSVSSSYLHWYQQKSGVSPKLWIYSTSNLASGVPARFSGSGSGTSYSLTISSVEAEDAATYYCQQYSGYPLTFGAGTKLELKR | 0.09 |
|  |  |  |  | binds | binds | 0.65 | Humanised 1G11 (antibody, human IgG1, kappa, V domains shown, Straight graft of 1G11 CDRs with serine at Kabat position 47 of the heavy chain (H7, Lo1); human IgG1 Fc with L235A and G237A (EU numbering), Fc-disabled; also called humanised 1G11 (H7, Lo1); copies: 2 + 2) VH: QVQLVQSGAEVKKPGSSVKVSCKASGYTFTSYYINWVRQAPGQGLESMGRIAPGNTYYNEIFKGRVTITADKSTSTAYMELSSLRSEDTAVYYCARRGYEGALDYWGQGTLVTVSS VL: EIVLTQSPATLSLSPGERATLSCRASQRISNNLHWYQQKPGQAPRLLIKYVSQSISGIPARFSGSGSGTDFTLTISSLEPEDFAVYYCQQSNSWPLTFGQGTKLEIKR |  |
